Reference: paper PMC4837482, “The complex binding mode of the peptide hormone H2 relaxin to its receptor RXFP1” (Nature Communications, 2016)
Numbering of substitutions follows the chain as printed.

Experiments:
Experiment in all cases: cAMP activity assay (pCRE β-galactosidase reporter), transfected HEK293T cells
Assay type in all cases: cell-based
RXFP1 N43A = target: T1, RXFP1 N43A (Homo sapiens, UniProt Q9HBX9, N65A); conditions: construct N43A, ±s.e.m.
T1 construct: transiently transfected human embryonic kidney (HEK) 293T cells expressing full-length RXFP1 and mutants; expressed in transfected cells; host or cells: HEK293T
T1 sequence (Q9HBX9 23-757 N65A limits assumed): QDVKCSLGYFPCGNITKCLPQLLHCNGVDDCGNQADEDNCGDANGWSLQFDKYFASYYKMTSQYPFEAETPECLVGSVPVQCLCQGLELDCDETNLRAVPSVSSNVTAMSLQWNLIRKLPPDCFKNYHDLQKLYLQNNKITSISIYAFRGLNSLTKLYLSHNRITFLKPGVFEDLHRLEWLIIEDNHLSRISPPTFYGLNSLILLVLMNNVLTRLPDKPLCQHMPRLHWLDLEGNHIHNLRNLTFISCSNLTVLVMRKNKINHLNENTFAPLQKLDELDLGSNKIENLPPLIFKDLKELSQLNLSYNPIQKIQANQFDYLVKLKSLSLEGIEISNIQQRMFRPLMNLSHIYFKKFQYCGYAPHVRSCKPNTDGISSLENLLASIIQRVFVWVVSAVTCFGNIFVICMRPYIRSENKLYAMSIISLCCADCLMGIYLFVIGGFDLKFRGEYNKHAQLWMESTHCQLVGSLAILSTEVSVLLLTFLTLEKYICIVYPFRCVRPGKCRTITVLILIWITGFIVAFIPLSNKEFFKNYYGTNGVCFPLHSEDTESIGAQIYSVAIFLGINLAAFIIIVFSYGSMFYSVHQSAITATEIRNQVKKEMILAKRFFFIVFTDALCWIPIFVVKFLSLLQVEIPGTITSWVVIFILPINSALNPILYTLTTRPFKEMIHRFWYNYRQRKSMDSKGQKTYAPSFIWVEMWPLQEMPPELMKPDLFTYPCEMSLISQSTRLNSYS
Procedure, shortened: (§1)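 Receptor signalling is measured as CRE-driven β-galactosidase activity after H2 relaxin exposure, using a colorimetric substrate read at 570 nm. Values are normalised to 5 μM Forskolin, pooled from at least three independent triplicate experiments.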

RXFP1 Q49A/F50A = target: T2, RXFP1 Q49A/F50A (Homo sapiens, UniProt Q9HBX9, F72A/Q71A); conditions: construct Q49A/F50A, ±s.e.m.
T2 construct: cells expressing full-length RXFP1 and mutants; expressed in transfected cells; host or cells: HEK293T
T2 sequence (Q9HBX9 23-757 Q71A/F72A limits assumed): T1 sequence (Q9HBX9 23-757 N65A limits assumed) with A43N, Q49A, F50A
Procedure, shortened: as §1

RXFP1 G45W46-AA = target: T3, RXFP1 G45W46-AA (Homo sapiens, UniProt Q9HBX9, G67A/W68A)
T3 construct: transiently transfected human embryonic kidney (HEK) 293T cells expressing full-length RXFP1 and mutants; expressed in transfected cells; host or cells: HEK293T
T3 sequence (Q9HBX9 23-757 G67A/W68A limits assumed): T1 sequence (Q9HBX9 23-757 N65A limits assumed) with A43N, G45A, W46A
Procedure, shortened: as §1

[1] = percentage of maximum response to 5 μM Forskolin

## H2 relaxin: two-chain 6-kDa peptide hormone structurally related to insulin; recombinant human gene-2 H2 relaxin provided by Corthera
RXFP1 N43A; cAMP reporter
  H2 relaxin pEC50: 9.06±0.48 (4)
RXFP1 N43A; [1]
  H2 relaxin Emax: 120.23±7.81 (4) %
RXFP1 Q49A/F50A; cAMP reporter
  H2 relaxin pEC50: 9.17±0.04 (3)
RXFP1 Q49A/F50A; [1]
  H2 relaxin Emax: 98.2±8.8 (3) %
RXFP1 G45W46-AA; G45A/W46A RXFP1
  H2 relaxin-stimulated cAMP activity: virtually unable to signal
RXFP1 G45W46-AA; construct G45W46-AA, cAMP reporter
  H2 relaxin pEC50: <6 (3)
